Assay results published in the Human Domainome abundance scans (Beltran et al. 2025).
± gives the uncertainty stated by the source.

B1: Far upstream element-binding protein 1, residues 184 to 257; numbered along this chain, Q96AE4 (parent)
chain: GNAVQEIMIPASKAGLVIGKGGETIKQLQERAGVKMVMIQDGPQNTGADKPLRITGDPYKVQQAKEMVLELIRD

Variants of: B1
Test: abundance fitness (aPCA) (normalised: wild type 0, dead -1); higher = more abundant; growth selection in yeast, the domain comes from the species named
Settings: Homo sapiens

Variant	abundance fitness
GNAVQEIMIPASTAGLVIGKGGETIKQLQERAGVKMVMIQDGPQNTGADKPLRITGDPYKVQQAKEMVLELIRD [K13T]	-0.218 ± 0.036
GNAVQEIMIPASKAGLVIGKGGETIKQPQERAGVKMVMIQDGPQNTGADKPLRITGDPYKVQQAKEMVLELIRD [L28P]	-0.77 ± 0.051
GNAVQEIMIPASKAGLVIGKEGETIKQLQERAGVKMVMIQDGPQNTGADKPLRITGDPYKVQQAKEMVLELIRD [G21E]	-0.059 ± 0.034
GNAVQEIMIPASKAGLVIGKGGETIKQLQERAGVKMVMIQDGPQNTGADKPLRITEDPYKVQQAKEMVLELIRD [G56E]	-1.05 ± 0.076
GNAVQEIMIPASKAGLVIGKGGETIKQLQERAGVKMVMIQDGPQNTPADKPLRITGDPYKVQQAKEMVLELIRD [G47P]	-0.108 ± 0.037
GNAVQEIMIPASKAGLVIGKGGETIKQLQERAGVKMVMIQDGPQNTEADKPLRITGDPYKVQQAKEMVLELIRD [G47E]	-0.038 ± 0.036
GNAVQEIMIPASKAGLVIGKGGETIKQLQERAGVKMVMIQDGPQNTGADKPLRGTGDPYKVQQAKEMVLELIRD [I54G]	-0.913 ± 0.039
GNAVQEIMIPASKSGLVIGKGGETIKQLQERAGVKMVMIQDGPQNTGADKPLRITGDPYKVQQAKEMVLELIRD [A14S]	-0.049 ± 0.032
GNAVQEIMIPASKAGLVIGKGGETIKQLQERAGVKMVMIQDGPPNTGADKPLRITGDPYKVQQAKEMVLELIRD [Q44P]	0.006 ± 0.037
GNAVQEIMIPASKAGLVIGKGGETIKQLQERAGVKMVMIQDGPQNTGADKPLRITGDPYKVQQAKEMMLELIRD [V68M]	-0.156 ± 0.034
GNAVQEIMIPASKAGLVIGKGGETIKQLQERAGVKMVMIQDGPQNRGADKPLRITGDPYKVQQAKEMVLELIRD [T46R]	-0.046 ± 0.027
GNAVQEIMIPASKAGLVIGKGGETIKQLQERAGVKMVMIQDGPQNHGADKPLRITGDPYKVQQAKEMVLELIRD [T46H]	-0.055 ± 0.055
GNAVQEIMIPASKAGLVIGKGGETAKQLQERAGVKMVMIQDGPQNTGADKPLRITGDPYKVQQAKEMVLELIRD [I25A]	-0.32 ± 0.034
GNAVQEIMIPASKAGLVIGKGGETFKQLQERAGVKMVMIQDGPQNTGADKPLRITGDPYKVQQAKEMVLELIRD [I25F]	-0.158 ± 0.05
GNAVQEIMIPASKAGLVIGKGPETIKQLQERAGVKMVMIQDGPQNTGADKPLRITGDPYKVQQAKEMVLELIRD [G22P]	-0.328 ± 0.041
GNAVQEIMIPASKAGLVIGKGKETIKQLQERAGVKMVMIQDGPQNTGADKPLRITGDPYKVQQAKEMVLELIRD [G22K]	-0.14 ± 0.038
GNAVQEIMIPASKAGLVIGKGLETIKQLQERAGVKMVMIQDGPQNTGADKPLRITGDPYKVQQAKEMVLELIRD [G22L]	-0.157 ± 0.033
GNAVQEIMIPASKAGLVIGKGGETIKQLQERAGVKMVMIQDGPQNTGADKPLRITGDPYKVQQAKEMVLESIRD [L71S]	-0.218 ± 0.031
GNAVQEIMIPASKAGLVIGKGGETIKQLQERAGVKMVMIQDGPQNTGADKPLRITGDPYKVQQAKEMVLEQIRD [L71Q]	-0.082 ± 0.043

Variant	abundance fitness
GNAVQEIMIPASKAGLVIGKGGETIKQLQEYAGVKMVMIQDGPQNTGADKPLRITGDPYKVQQAKEMVLELIRD [R31Y]	-0.168 ± 0.056
GNAVQEIMIPASKAGLVIGKGGETIKQLQERAGVKMVMIQDGPQNTGADKPLRITGDPYKVQQAKEMVLFLIRD [E70F]	-0.314 ± 0.049
GNAVQEIMIPASKAGLVIGKGGETIKQLQERAGVKMVMIQDGPQNTGADKPLRITGDPYKVQQAKEMVLHLIRD [E70H]	-0.081 ± 0.05
GNAVQEIMIPASKAGLVIGKGGETIKQLQERAGVKMVMIQDGPQNTGADKPLRISGDPYKVQQAKEMVLELIRD [T55S]	-0.053 ± 0.032
GNAVQEIMIPASKAGLVIGKGGETIKQLQERAGVKMVMIQDGPQNTGADKPLRITGDPYRVQQAKEMVLELIRD [K60R]	-0.052 ± 0.026
GKAVQEIMIPASKAGLVIGKGGETIKQLQERAGVKMVMIQDGPQNTGADKPLRITGDPYKVQQAKEMVLELIRD [N2K]	0.155 ± 0.034
GNAVQEIMIPASKAGLVIGKGGETIKQLMERAGVKMVMIQDGPQNTGADKPLRITGDPYKVQQAKEMVLELIRD [Q29M]	-0.044 ± 0.042
GNAVQEIMIPASKAGLVIGKGGETIKQLQERVGVKMVMIQDGPQNTGADKPLRITGDPYKVQQAKEMVLELIRD [A32V]	-0.062 ± 0.033
GNAVQEIMIPASKAGLVIGKGGETIKQLQIRAGVKMVMIQDGPQNTGADKPLRITGDPYKVQQAKEMVLELIRD [E30I]	-0.03 ± 0.054
GNAVQEIMIPAAKAGLVIGKGGETIKQLQERAGVKMVMIQDGPQNTGADKPLRITGDPYKVQQAKEMVLELIRD [S12A]	0.012 ± 0.033
GNAVQEIMIPASKAGLVIGKGGQTIKQLQERAGVKMVMIQDGPQNTGADKPLRITGDPYKVQQAKEMVLELIRD [E23Q]	-0.021 ± 0.039
GNAVQEIMIPASKAGLVIGKGGETIKQLQERAGVKMVMIQDGPQNTGADKRLRITGDPYKVQQAKEMVLELIRD [P51R]	0.007 ± 0.028
GNAVQEIMIPASKAGLVIGMGGETIKQLQERAGVKMVMIQDGPQNTGADKPLRITGDPYKVQQAKEMVLELIRD [K20M]	-0.112 ± 0.04
GNAVQEIMIPASKAGLVIGKGGETIKQLQERAGVKMEMIQDGPQNTGADKPLRITGDPYKVQQAKEMVLELIRD [V37E]	-0.006 ± 0.034
GNAVQEIMIPASKAGLVIGKGGETIKQLQERAGVKMVMIQDSPQNTGADKPLRITGDPYKVQQAKEMVLELIRD [G42S]	0.009 ± 0.031
GNAVQEIMIPASKAGLVIGKGGETIKQLQERAGVKMVMIQTGPQNTGADKPLRITGDPYKVQQAKEMVLELIRD [D41T]	-0.052 ± 0.036
GNAVQEIMIPASKAGLVIGKGGETIKQLQERAGVKMVMIQDGPQNTGADKPLRITGDPYKVQQAKEMVPELIRD [L69P]	-0.346 ± 0.038
GNAVQEIMIPASKAGLVIGKGGETIKQLQERAGVKMVMIQDGPQHTGADKPLRITGDPYKVQQAKEMVLELIRD [N45H]	-0.022 ± 0.052
